Experimental data published in PMC7901023.

Target: FOXA1-ΔHx (UniProt P35582)
Test: pull-down

H3/H4 tetramers (from UniProt P84233;P62799) (complex)
pull-down relative to wild-type FOXA1 (fraction of wild type): 0.33
